Source: patent US20080057516A1 (published 2008)

Columns and labels:
[1] = biological target: T1, Syndecan-3 ectodomain purified from early postnatal rat brain (rat, UniProt P33671 45-387, carries natural heparan sulfate (HS) side chains; attachment residues not stated); experiment: SPR (IAsys), GFL immobilised, syndecan-3 ectodomain in solution; equilibrium response; equilibrium response only; syndecan-3 concentrations limiting, dynamics could not be fit
T1 construct: extracellular domain; Native proteoglycan; also called S3; extracellular domain of syndecan-3
T1 sequence (P33671 45-387): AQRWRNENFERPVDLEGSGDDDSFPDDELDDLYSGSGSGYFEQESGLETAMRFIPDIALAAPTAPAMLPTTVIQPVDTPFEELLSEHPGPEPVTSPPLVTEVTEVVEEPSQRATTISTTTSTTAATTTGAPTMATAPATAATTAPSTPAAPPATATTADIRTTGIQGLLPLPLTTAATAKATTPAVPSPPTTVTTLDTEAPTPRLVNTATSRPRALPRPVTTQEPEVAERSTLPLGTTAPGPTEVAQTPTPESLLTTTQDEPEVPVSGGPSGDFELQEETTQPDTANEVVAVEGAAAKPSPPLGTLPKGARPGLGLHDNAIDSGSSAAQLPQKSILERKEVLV

[2] = biological target: T1, Syndecan-3 ectodomain purified from …; experiment: SPR (IAsys), GFL immobilised on aminosilane cuvette, syndecan-3 ectodomain in solution
Experimental: (§1) The affinities of GFLs for heparin and heparin-like molecules (e.g. syndecan-3) were determined by plasmon surface resonance using the IAsys system (Affinity Sensors, Cambridge, UK). Planar aminosilane cuvettes (Affinity Sensors) were used for protein coupling to avoid problems with mass transport, which occur frequently with matrix surfaces. In the initial approach, heparin-BSA was immobilized to the cuvette surface using the manufacturer's instructions and different ligand concentrations were used to determine association (kₐ) and dissociation (kdis) rates using the IAsys Fastfit software. The dissociation constant Kd was determined from the binding dynamics as […], or from equilibrium response (R) using a simple Langmuir fit: R=(Rₘₐₓ*C)/(Kd+C), where C is the ligand concentration. […] The dissociation constants were determined from binding dynamics and equilibrium response. The same cuvettes were used to test binding of heparan sulfate proteoglycan syndecan-3, which was purified as an ectodomain from early postnatal rat brains by HB-GAM affinity chromatography (Raulo et al., 1994).
(§2) Binding was analyzed using IAsys cuvettes with immobilized heparin-BSA or GFLs. The dissociation constant Kd was determined from dynamics of association and dissociation (Kd=kdis/kₐ), or from equilibrium response R (R=(Rₘₐₓ*C)/(Kd+C), where C is ligand concentration).

[3] = biological target: T1, Syndecan-3 ectodomain purified from …; experiment: SPR (IAsys), GFL immobilised, syndecan-3 ectodomain in solution; equilibrium response
Experimental: as §1, §2

[4] = biological target: T1, Syndecan-3 ectodomain purified from …; experiment: SPR (IAsys), GFL immobilised, syndecan-3 ectodomain in solution; Kd = kdis/ka
Experimental: as §1, §2

[5] = biological target: T1, Syndecan-3 ectodomain purified from …; experiment: SPR (IAsys optical biosensor): ARTN immobilized on the aminosilane cuvette, syndecan-3 ectodomain (S3) in solution at 0 to about 95 nM. Kd from the equilibrium response (insert of the ARTN panel)
Experimental: as §1

| Binder | Kd [1] [nM] | koff [2] [s⁻¹] | kon [2] [M⁻¹ s⁻¹] | Kd [3] [nM] | Kd [4] [nM] | Kd [5] [nM] |
| --- | --- | --- | --- | --- | --- | --- |
| Persephin (PSPN) (ligand, UniProt O60542 61-156, looked up) ALSGPCQLWSLTLSVAELGLGYASEEKVIFRYCAGSCPRGARTQHGLALARLQGQGRAHGGPCCRPTRYTDVAFLDDRHRWQRLPQLSAAACGCGG | > 70 |  |  |  |  |  |
| Neurturin (NRTN) (ligand, UniProt Q99748 96-197, looked up) ARLGARPCGLRELEVRVSELGLGYASDETVLFRYCAGACEAAARVYDLGLRRLRQRRRLRRERVRAQPCCRPTAYEDEVSFLDAHSRYHTVHELSARECACV |  | 0.021 | 750000 | 28.5 | 26.3 |  |
| Artemin (ARTN) (ligand, UniProt Q5T4W7 108-220, looked up) AGGPGSRARAAGARGCRLRSQLVPVRALGLGHRSDELVRFRFCSGSCRRARSPHDLSLASLLGAGALRPPPGSRPVSQPCCRPTRYEAVSFMDVNSTWRTVDRLSATACGCLG |  | 0.034 | 630000 | 21.2 | 53.9 | 21.1 |
| Glial cell line-derived neurotrophic factor (GDNF) (ligand, UniProt P39905 78-211, looked up, Immobilised on an aminosilane cuvette for SPR, or coated on plastic, glass or filters for the cell assays; also called wtGDNF; unlabeled (Cold) GDNF) SPDKQMAVLPRRERNRQAAAANPENSRGKGRRGQRGKNRGCVLTAIHLNVTDLGLGYETKEELIFRYCSGSCDAAETTYDKILKNLSRNRRLVSDKVGQACCRPIAFDDDLSFLDDNLVYHILRKHSAKRCGCI |  | 0.015 | 1.3e+06 | 12 | 11.5 |  |
